Assay results: US20240182526A1 (UNIVERSITY OF SOUTHERN CALIFORNIA, published 2024)

Target: T1, SRC, endogenous in mouse splenocytes (mouse, UniProt P05480 2-535)
T1 construct: Detected as pSRC (pY416-SRC antibody) in gp130 co-immunoprecipitates; also called pSRC; c-SRC
Experiment: co-immunoprecipitation, F814 mouse splenocytes with or without OSM

binding result: no binding
B1: gp130 F814 variant of the CRISPR/Cas9 F814 mouse (SEQ ID NO:27 with F812 substitution) (receptor)
chain: QLLEPCGYIYPEFPVVQRGSNFTAICVLKEACLQHYYVNASYIVWKTNHAAVPREQVTVINRTTSSVTFTDVVLPSVQLTCNILSFGQIEQNVYGVTMLSGFPPDKPTNLTCIVNEGKNMLCQWDPGRETYLETNYTLKSEWATEKFPDCQSKHGTSCMVSYMPTYYVNIEVWVEAENALGKVSSESINFDPVDKVKPTPPYNLSVTNSEELSSILKLSWVSSGLGGLLDLKSDIQYRTKDASTWIQVPLEDTMSPRTSFTVQDLKPFTEYVFRIRSIKDSGKGYWSDWSEEASGTTYEDRPSRPPSFWYKTNPSHGQEYRSVRLIWKALPLSEANGKILDYEVILTQSKSVSQTYTVTGTELTVNLTNDRYVASLAARNKVGKSAAAVLTIPSPHVTAAYSVVNLKAFPKDNLLWVEWTPPPKPVSKYILEWCVLSENAPCVEDWQQEDATVNRTHLRGRLLESKCYQITVTPVFATGPGGSESLKAYLKQAAPARGPTVRTKKVGKNEAVLAWDQIPVDDQNGFIRNYSISYRTSVGKEMVVHVDSSHTEYTLSSLSSDTLYMVRMAAYTDEGGKDGPEFTFTTPKFAQGEIEAIVVPVCLAFLLTTLLGVLFCFNKRDLIKKHIWPNVPDPSKSHIAQWSPHTPPRHNFNSKDQMYSDGNFTDVSVVEIEANNKKPCPDDLKSVDLFKKEKVSTEGHSSGIGGSSCMSSSRPSISSNEENESAQSTASTVQYSTVVHSGYRHQVPSVQVFSRSESTQPLLDSEERPEDLQLVDSVDGGDEILPRQPFFKQNCSQPEACPEISHFERSNQVLSGNEEDFVRLKQQQVSDHISQPYGSEQRRLFQEGSTADALGTGADGQMERFESVGMETTIDEEIPKSYLPQTVRQGGYMPQ
notes: Endogenous protein in lysates of F814 mouse splenocytes; also called Y814 mutant; gp130 Y814-deficient
